The target of test [1] is recombinant Plasmodium vivax Apical Membrane Antigen 1, PvAMA1-His6 (Plasmodium vivax) (UniProt Q9TY14). Put plainly: ITC; MicroCal VP-ITC; 9.43 µmol/L PvAMA1-His6 in the cell titrated with 300 µmol/L peptide (10 µL injections), 25 °C, PBS; one-site model. For orientation: In ITC the heat of successive injections is recorded.
Test [2] shares this target. Kind of test: SPR; Biacore T200; PvAMA1-His6 amine-coupled on a CM5 chip; peptides injected at 50 µL/min, 25 °C, PBS; steady-state model, apparent KD. (In general: In SPR one partner is held on a chip, and binding of the other changes the refractive index at the surface.)

In the case of cyclic PvRON2 (2035-2074) peptide, in test [1], the Ka was 300000 M⁻¹, the dH is -36 kcal/mol and the stoichiometry N (peptide/protein) came out at 0.6. Moreover, in test [2], the Kd amounted to 23.9 µM.

The values are drawn from publication PMC6347818.
